Data reported in patent US20230272059A1 (TILLOTTS PHARMA, published 2023).
Positions count from the first letter of the chain named. Where two headings read alike, the source gives them in different places.

B1: humanized scFv 16-22-H05-sc02 (scFv)
scFv: MDIQMTQSPSSLSASVGDRVTIKCQASQSIFSGLAWYQQKPGKAPKLLIYGASKLASGVPSRFSGSGSGTEFTLTISGLQPADFATYYCQSYYYSSSSSDGSYAFGGGTKLTVLGGGGGSGGGGSGGGGSGGGGSEVQLVESGGGLVQPGGSLRLSCKASGIDFNNYGIGWVRQAPGKGLEWITYIYPGFAITNFANSVKGRFTISSDNSKNTVYLQMNSLRAEDTAVYYCARDPVYATSSGYFDLWGQGTLVTVSS
notes: also called 16-22-H05-sc02 (STR); structural graft
B2: humanized scFv 16-22-H05-sc04 (scFv)
scFv: B1 scFv with K23T
notes: also called 16-22-H05-sc04 (CDR/STR); domain shuffled variant

How the values were obtained:
[1] = molecular target: T1, recombinant human TNFα (human, UniProt P01375 77-233); assay: inhibition ELISA, blocking of biotinylated TNFα binding to coated TNFRII-Fc
T1 construct: also called biotinylated TNFα; TNFαtrimer
T1 sequence (P01375 77-233 limits assumed): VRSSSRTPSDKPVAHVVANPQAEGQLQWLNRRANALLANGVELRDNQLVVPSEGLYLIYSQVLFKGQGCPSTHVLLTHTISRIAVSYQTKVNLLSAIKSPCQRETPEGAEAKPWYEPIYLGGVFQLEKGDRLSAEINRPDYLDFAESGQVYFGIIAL

[2] = molecular target: T1, recombinant human TNFα; assay: inhibition ELISA: biotinylated human TNFα pre-incubated with serially diluted scFv, binding of unblocked TNFα to coated TNFRII-Fc detected
[3] = molecular target: T1, recombinant human TNFα; assay: cell-based or functional assay
[4] = molecular target: T1, recombinant human TNFα; assay: cell-based or functional assay; remark: listed apart in the source
[5] = molecular target: T1, recombinant human TNFα; assay: inhibition ELISA, blocking of biotinylated TNFα binding to coated TNFRI-Fc; relative to infliximab
[6] = molecular target: T1, recombinant human TNFα; assay: inhibition ELISA, blocking of biotinylated TNFα binding to coated TNFRII-Fc; relative to infliximab
[7] = molecular target: T1, recombinant human TNFα; assay: cell-based or functional assay; remark: listed apart in the source
[8] = molecular target: recombinant Cynomolgus monkey TNFα (Cynomolgus monkey (Macaca fascicularis), UniProt P79337 77-233); assay: cell-based or functional assay
Sequence of recombinant Cynomolgus monkey TNFα (P79337 77-233 limits assumed): as the sequence (P01375 77-233 limits assumed) above, with L37V, R44T, T72N, R138L counted along it

[9] = molecular target: Rhesus monkey TNFα (Rhesus monkey (Macaca mulatta), UniProt P48094 77-233); assay: cell-based or functional assay
Sequence of Rhesus monkey TNFα (P48094 77-233 limits assumed): as the sequence (P01375 77-233 limits assumed) above, with R44T, T72N, R138L counted along it

| Binder | IC [ng] (head cut off; probably IC50 [ng/mL]) [1] | IC50 (read off the curve) [2] | IC50 (read off the curve) (L929 assay, % growth) [3] | L929 assay, rel. IC50 (IC50 infliximab / IC50 scFv, ng/mL) [4] | rel. IC50 (IC50 infliximab / IC50 scFv, ng/mL) [5] | rel. IC50 (IC50 infliximab / IC50 scFv, ng/mL) [6] | IC50 (read off the curve) (L929 assay, % growth) [7] | IC50 (read off the curve) (L929 assay, % growth) [8] | IC50 (read off the curve) (L929 assay, % growth) [9] |
| --- | --- | --- | --- | --- | --- | --- | --- | --- | --- |
| B1 | 20 ng (head cut off) | ~20 ng/mL | ~0.5 ng/mL | 13.1 | 3.5 | 5.7 | ~0.6 ng/mL | ~3 ng/mL | ~3 ng/mL |
| B2 | 32 ng (head cut off) | ~30 ng/mL | ~0.5 ng/mL | 14.6 | 2.8 | 3.5 | ~0.6 ng/mL | ~3 ng/mL | ~3 ng/mL |
